{"source": "patent US7976843B2", "about": "“Method for screening peptides for use in immunotherapy” (Institut National de la Santa et de la Recherche Medicale …, priority 2000, dated 2011)", "key": {"HLA A2.1 molecule [1]": {"target": "T1, HLA A2.1 molecule (Homo sapiens, UniProt P04439, D140Y/D185E/D98H/E176V/E277Q/G131W/G231S/I119V/I121R/I166T/I218V/L300P/L318F/N151K/N90K/P208A/P217A/Q86G/Q94H/R138H/R169H/T345S)", "type": "binding"}, "[2]": {"tested_on": "RMAS-HHD targets loaded with peptide", "assay": "Immunogenicity: CTL generation in HHD transgenic mice, 51Cr lysis of peptide-loaded targets", "type": "in vivo", "conditions": "for Responders/total mice: HHD mice, 100 μg peptide s.c., responder: specific cytotoxicity >15% above unloaded targets; for immunogenicity (in words): HHD mice (also humans)"}, "HLA A2.1 molecule [3]": {"target": "T1, HLA A2.1 molecule", "assay": "Stability of the peptide/HLA A2.1 complex (DC50) on T2 cells, flow cytometry", "type": "binding", "conditions": "for DC, Native peptides: HIV 1 peptides", "description": "For each incubation time, the cells are then labeled, as indicated above, with the BB7.2 antibody, and analyzed by flow cytometry in order to evaluate the amount of peptide/HLA A2.1 complex present at their surface. […] The DC50 (dissociation complex: DC) is defined as being the time required for the loss of 50% of the HLA A2.1/peptide complexes stabilized at t=0."}, "[4]": {"tested_on": "RMAS-HHD cells loaded with peptide", "assay": "Vax1/pet-neu immunization: CTL lysis of peptide-loaded RMAS-HHD cells", "type": "in vivo, HHD mice", "conditions": "CTLs of a Vax1/pet-neu immunized mouse; RMAS-HHD targets loaded with the named peptide; FIG. 14", "description": "One week after the final immunization, their spleen cells are restimulated in vitro with B cells activated with LPS and loaded with each of the twelve peptides.\nThe cytotoxicity is evaluated using RMAS-HHD cells (target cells) loaded with the peptide corresponding to that with which the B cells were loaded or with a control peptide.\nSix mice are immunized with either the Vax1/pet-neu construct or the vector Vax1. Their spleen cells are stimulated in vitro in a repeated manner with the B cells activated with LPS and loaded with each peptide to be tested (effector cells).\nThe cytotoxicity is tested after the third stimulation in vitro. The RMAS-HHD cells, loaded with the peptide corresponding to that with which the B cells were loaded, or with a control peptide, and the EL-4/HHD/neu cells are used as target cells."}, "[5]": {"tested_on": "RMA-HHH cells infected with recombinant vaccinia virus expressing gag or pol of HIV1", "type": "cell-based, human"}, "[6]": {"tested_on": "HLA A2.1+/hTERT+ human tumor cells U266", "assay": "Human CTLs tested for killing of U266 tumor cells", "type": "cell-based", "conditions": "E/T 40/1, 20/1, 10/1; FIG. 10", "description": "CTLs generated from human PBMCs, originating from healthy donors, stimulated in vitro with autologous dendritic cells loaded with the variant peptide mhp 572Y1 or the variant peptide mhp 988Y1 were tested for their ability to kill HLA A2.1+/hTERT+ human tumor cells: U266 [VONDERHEIDE, Immunity, 10, 11, (1999)], or HSS HLA A2.1−/hTERT+ human tumor cells: [VONDERHEIDE, Immunity, 10, 11, (1999)]."}, "EL-4/HHD/neu tumor cells": {"tested_on": "EL-4/HHD/neu tumor cells", "assay": "Antitumor protection after peptide vaccination, EL-4/HHD/neu graft", "conditions": "10 HHD mice, two injections two weeks apart; EL-4/HHD/neu graft"}, "[7]": {"conditions": "native peptides, relative affinity vs reference peptide HIVpol 589, lower RA = stronger binding"}, "[8]": {"conditions": "native TERT peptides, reference peptide HIVpol 589"}}, "note": "Read-outs that look alike come from different tables or passages of the source.", "data": [{"sequence": "QLMPYGCLL [HER-2/neu 799, reference compound]", "values": [{"measurement": "RA", "setting": "HLA A2.1 molecule [1]; [7]", "result": 1.0}, {"measurement": "Responders/total mice", "setting": "[2]", "result": "3/4"}, {"measurement": "DC50 Y1-DC50 WT", "setting": "HLA A2.1 molecule [3]; […], arrow in neighbouring cell gives direction", "result": ">2", "unit": "h"}, {"measurement": "DC50", "setting": "HLA A2.1 molecule [3]; native peptides, time for loss of 50% of HLA A2.1/peptide complexes", "result": "6 to 8", "unit": "h"}, {"measurement": "specific lysis above background noise", "setting": "[4]", "result": 30, "unit": "%"}]}, {"sequence": "RLLQETELV [HER-2/neu 689]", "values": [{"measurement": "Responders/total mice", "setting": "[2]", "result": "5/6"}, {"measurement": "specific lysis above background noise", "setting": "[4]", "result": 30, "unit": "%"}]}, {"sequence": "LLDTGADDTV [L10V]", "values": [{"measurement": "natural presentation by cells expressing HLA-A2.1 and the viral protein", "setting": "[5]", "result": "naturally presented"}, {"measurement": "RA, P1Y peptides", "setting": "HLA A2.1 molecule [1]", "result": 1.5}, {"measurement": "RA, Native peptides", "setting": "HLA A2.1 molecule [1]; HIV 1 peptides, […]", "result": 10}, {"measurement": "immunogenicity (in words)", "setting": "[2]", "result": "not immunogenic"}, {"measurement": "DC, P1Y peptides", "setting": "HLA A2.1 molecule [3]", "result": 4, "unit": "h"}, {"measurement": "DC, Native peptides", "setting": "HLA A2.1 molecule [3]", "result": "<2", "unit": "h"}]}, {"sequence": "YLQPEQLQV [HER-2/neu 391Y1]", "values": [{"measurement": "RA", "setting": "HLA A2.1 molecule [1]", "result": 1.3}, {"measurement": "DC50", "setting": "HLA A2.1 molecule [3]", "result": 6, "unit": "h"}, {"measurement": "specific lysis above background noise", "setting": "[4]", "result": 30, "unit": "%"}]}, {"sequence": "RLFFYRKSV [mhp 572]", "values": [{"measurement": "RA", "setting": "HLA A2.1 molecule [1]; [8]", "result": 25.3}, {"measurement": "DC50", "setting": "HLA A2.1 molecule [3]; native TERT peptides", "result": "<2", "unit": "h"}, {"measurement": "lysis of U266 tumor cells / natural presentation by human tumor cells", "setting": "[6]", "result": "naturally presented by the human tumor cells"}]}, {"sequence": "EMMTACQGV [E9V]", "values": [{"measurement": "natural presentation by cells expressing HLA-A2.1 and the viral protein", "setting": "[5]", "result": "naturally presented"}, {"measurement": "RA, P1Y peptides", "setting": "HLA A2.1 molecule [1]", "result": 1.7}, {"measurement": "immunogenicity (in words)", "setting": "[2]", "result": "not immunogenic"}, {"measurement": "DC, P1Y peptides", "setting": "HLA A2.1 molecule [3]", "result": ">6", "unit": "h"}, {"measurement": "DC, Native peptides", "setting": "HLA A2.1 molecule [3]", "result": "<2", "unit": "h"}]}, {"sequence": "VMAGVGSPYV [HER-2/neu 773, reference compound]", "values": [{"measurement": "RA", "setting": "HLA A2.1 molecule [1]; [7]", "result": 1.7}, {"measurement": "Responders/total mice", "setting": "[2]", "result": "2/3"}, {"measurement": "specific lysis above background noise", "setting": "[4]", "result": 30, "unit": "%"}]}, {"sequence": "YLEEITGYL [HER-2/neu 402Y1]", "values": [{"measurement": "RA", "setting": "HLA A2.1 molecule [1]", "result": 3.7}, {"measurement": "DC50", "setting": "HLA A2.1 molecule [3]", "result": 4, "unit": "h"}, {"measurement": "tumor size at D28", "setting": "EL-4/HHD/neu tumor cells", "result": "323±116", "unit": "mm^2"}, {"measurement": "specific lysis above background noise", "setting": "[4]", "result": 30, "unit": "%"}]}, {"sequence": "DLQVNSLQTV [mhp 988]", "values": [{"measurement": "RA", "setting": "HLA A2.1 molecule [1]; [8]", "result": 28.6}, {"measurement": "DC50", "setting": "HLA A2.1 molecule [3]; native TERT peptides", "result": "<2", "unit": "h"}, {"measurement": "lysis of U266 tumor cells / natural presentation by human tumor cells", "setting": "[6]", "result": "naturally presented by the human tumor cells"}]}]}
